{
  "source": "patent US12281155",
  "about": "(INSTITUT PASTEUR, dated 2025)",
  "binders": {"B1": {"name": "SPK002M A3 antibody (antibody, human IgG1, kappa, V domains shown)", "VH": "EVQLVESGGGLIQPGGSLRLSCAASTITVTSNYMSWVRQAPGKGLEWVSVIYPGGSTFYADSVKGRFTISADNSKNTLYLQMNSLRAEDTAVYYCARDLVVYGMDVWGQGTTVTVSS", "VL": "EIVLTQSPGTLSLSPGERATLSCRASQSVSSSYLAWYQQKPGQAPRLLIYGASSRATGIPGRFSGSGSGTDFTLTISRLEPEDFAVYYCQQGVTFGGGTKVEIKR"}, "B2": {"name": "SPK002M C2 antibody (antibody, human IgG1, kappa, V domains shown)", "VH": "B1 VH with T26I, I51A, A71T", "VL": "B1 VL"}, "B3": {"name": "SPK002M A4 antibody (antibody, human IgG1, kappa, V domains shown)", "VH": "B1 VH with T26V", "VL": "B1 VL"}, "B4": {"name": "SPK002M A5 antibody (antibody, human IgG1, kappa, V domains shown)", "VH": "B1 VH with T26V", "VL": "B1 VL with V86I"}, "B5": {"name": "SPK002M C1 antibody (antibody, human IgG1, kappa, V domains shown)", "VH": "B1 VH with T26I, I51A, A71T", "VL": "B1 VL with S31D, Q91Y"}, "B6": {"name": "SPK002M A2 antibody (antibody, human IgG1, kappa, V domains shown)", "VH": "B1 VH", "VL": "B1 VL with S28G"}, "B7": {"name": "SPK002M B2 antibody (antibody, human IgG1, kappa, V domains shown)", "VH": "B1 VH with T26I, A71Y", "VL": "B1 VL with V86I"}, "B8": {"name": "SPK002M B1 antibody (antibody, human IgG1, kappa, V domains shown)", "VH": "B1 VH with T26I, A71Y", "VL": "B1 VL with S31D, V86I, Q91Y"}, "B9": {"name": "SPK002M A1 antibody (antibody, human IgG1, kappa, V domains shown)", "VH": "B1 VH", "VL": "B1 VL with S28G, V29F"}, "B10": {"name": "SPK002M C3 antibody (antibody, human IgG1, kappa, V domains shown)", "VH": "B1 VH with T26I, A71T", "VL": "B1 VL"}, "B11": {"name": "SPK002M A6 antibody (antibody, human IgG1, kappa, V domains shown)", "VH": "B1 VH with T26G", "VL": "B1 VL with V86I"}},
  "note": "Numbering of substitutions follows the chain as printed.",
  "data": [
    {"molecular_target": "T1, recombinant SARS-CoV-2 Spike RBD domain, Wuhan (SARS-CoV-2)", "T1 construct": "also called RBD Wuhan", "test": "ELISA on coated RBD", "values": [
      {"binder": "B1", "Binding AUC": 33},
      {"binder": "B2", "Binding AUC": 32},
      {"binder": "B3", "Binding AUC": 34},
      {"binder": "B4", "Binding AUC": 34},
      {"binder": "B5", "Binding AUC": 32},
      {"binder": "B6", "Binding AUC": 33},
      {"binder": "B7", "Binding AUC": 31},
      {"binder": "B8", "Binding AUC": 31},
      {"binder": "B9", "Binding AUC": 33},
      {"binder": "B10", "Binding AUC": 34}
    ]},
    {"molecular_target": "T1, recombinant SARS-CoV-2 Spike RBD …", "test": "competition ELISA, blocking of RBD binding to ACE2 ectodomain", "units": {"Blocking %": "%"}, "values": [
      {"binder": "B1", "Blocking %": 94},
      {"binder": "B2", "Blocking %": 88},
      {"binder": "B3", "Blocking %": 88},
      {"binder": "B4", "Blocking %": 89},
      {"binder": "B5", "Blocking %": 94},
      {"binder": "B6", "Blocking %": 92},
      {"binder": "B7", "Blocking %": 90},
      {"binder": "B8", "Blocking %": 87},
      {"binder": "B9", "Blocking %": 92},
      {"binder": "B10", "Blocking %": 88}
    ]},
    {"molecular_target": "T2, YU2 HIV-1 Env gp140 protein (HIV-1 YU2, UniProt P35961 32-670)", "T2 construct": "domain: gp140; also called gp140 (HIV-1 YU2); HIV gp140", "test": "polyreactivity ELISA (FIG. 1)", "values": [
      {"binder": "B1", "binding result": "no binding (tested: 4 µg/ml)"},
      {"binder": "B2", "binding result": "no binding (tested: 4 µg/ml)"},
      {"binder": "B3", "binding result": "no binding (tested: 4 µg/ml)"},
      {"binder": "B4", "binding result": "no binding (tested: 4 µg/ml)"},
      {"binder": "B11", "binding result": "no binding (tested: 4 µg/ml)"},
      {"binder": "B5", "binding result": "no binding (tested: 4 µg/ml)"},
      {"binder": "B6", "binding result": "no binding (tested: 4 µg/ml)"},
      {"binder": "B7", "binding result": "no binding (tested: 4 µg/ml)"},
      {"binder": "B8", "binding result": "no binding (tested: 4 µg/ml)"},
      {"binder": "B9", "binding result": "no binding (tested: 4 µg/ml)"},
      {"binder": "B10", "binding result": "no binding (tested: 4 µg/ml)"}
    ]}
  ]
}
